Assay results published in the supplement of paper PMC7125110.
± gives the standard error. For some of these results: Fewer inactive variants are shown than the library holds.

B1: glmS ribozyme (parent)
chain: AUAAAAGCGCCAGAACUACAGAAAUGUAGUUGACGAGGAGGAGGUUUAUCGAAUUUUCGGCGGAUGCCUCCAAA

Key:
Details in all cases: with glucosamine-6-phosphate
glucosamine-6-phosphate [1] = variants of: B1; experiment: kcat; higher = faster cleavage; RNA array
In short: (§1)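 Ribozyme variants carrying barcodes were transcribed in situ on sequenced MiSeq chips by E. coli RNA polymerase and tracked at 37 °C with a hybridised Cy3 probe. They were exposed to 40 μM to 10 mM glucosamine-6-phosphate in HEPES/KCl/Mg(OAc)2 buffer. kobs came from exponential decay fits of normalised per-tile medians, and kcat and KM from weighted Michaelis–Menten fits.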

glucosamine-6-phosphate [2] = variants of: B1; experiment: self-cleavage kobs at 40 uM GlcN6P; higher = faster cleavage; RNA array
In short: as §1

glucosamine-6-phosphate [3] = variants of: B1; experiment: self-cleavage kobs at 10000 uM GlcN6P; higher = faster cleavage; RNA array
In short: as §1

glucosamine-6-phosphate [4] = variants of: B1; experiment: KM; higher = weaker cofactor use; RNA array
In short: as §1

glucosamine-6-phosphate [5] = variants of: B1; experiment: self-cleavage kobs at 160 uM GlcN6P; higher = faster cleavage; RNA array
In short: as §1

glucosamine-6-phosphate [6] = variants of: B1; experiment: self-cleavage kobs at 640 uM GlcN6P; higher = faster cleavage; RNA array
In short: as §1

glucosamine-6-phosphate [7] = variants of: B1; experiment: self-cleavage kobs at 2500 uM GlcN6P; higher = faster cleavage; RNA array
In short: as §1

Row | Variant | kcat (glucosamine-6-phosphate [1]) [s⁻¹] | self-cleavage kobs at 40 uM GlcN6P (glucosamine-6-phosphate [2]) [s⁻¹] | self-cleavage kobs at 10000 uM GlcN6P (glucosamine-6-phosphate [3]) [s⁻¹] | KM (glucosamine-6-phosphate [4]) [µM] | self-cleavage kobs at 160 uM GlcN6P (glucosamine-6-phosphate [5]) [s⁻¹] | self-cleavage kobs at 640 uM GlcN6P (glucosamine-6-phosphate [6]) [s⁻¹] | self-cleavage kobs at 2500 uM GlcN6P (glucosamine-6-phosphate [7]) [s⁻¹]
1 | G13A C50A | < 1e-05 | < 1e-05 | < 1e-05 |  |  |  | 
2 | A12G C68U | 0.000271 ± 1.9e-05 |  | 0.000219 ± 1.5e-05 | 2400 ± 390 | 3.11e-05 ± 1.2e-05 | 5.55e-05 ± 6.8e-06 | 0.000137 ± 1.5e-05
3 | A12U G66U | 0.00516 ± 0.00082 | 0.000146 ± 1.8e-05 | 0.00479 ± 0.00055 | 1550 ± 380 | 0.000589 ± 0.0001 | 0.00128 ± 0.00014 | 0.00319 ± 0.00044
4 | G13A A64G | 0.0011 ± 0.0002 |  | 0.000665 ± 6.7e-05 | 6920 ± 2200 |  | 0.000113 ± 2.2e-05 | 0.000246 ± 5e-05
5 | A12G C67G | 0.000322 ± 4.9e-06 |  | 0.000273 ± 1.9e-05 | 1850 ± 62 | 2.45e-05 ± 1.1e-05 | 8.36e-05 ± 8.2e-06 | 0.000182 ± 1.7e-05
6 | A12U G13U | 0.000141 ± 9.1e-06 |  | 0.000123 ± 1.8e-05 | 1130 ± 200 |  | 5.07e-05 ± 9.6e-06 | 9.95e-05 ± 1.1e-05
7 | A12G G29U C67G | 7.88e-05 ± 1.7e-05 |  | 6.04e-05 ± 1.4e-05 |  |  |  | 
8 | A12U A48U | 0.0014 ± 0.00052 |  | 0.00139 ± 0.00023 |  | 7.62e-05 ± 1.5e-05 | 0.00024 ± 3.3e-05 | 0.000479 ± 6.9e-05
9 | A12G G13C | 2.64e-05 ± 6.5e-07 | < 1e-05 |  | 2100 ± 230 | < 1e-05 |  | 
10 | A12U U46C | 0.0152 ± 0.0021 | 0.000227 ± 3.3e-05 | 0.0123 ± 0.0017 | 2700 ± 520 | 0.00106 ± 0.00025 | 0.00223 ± 0.00068 | 0.00688 ± 0.0018
11 | G13C U30C | 0.000129 ± 2e-05 | < 1e-05 |  | 1470 ± 480 |  | 4.05e-05 ± 1.7e-05 | 8.07e-05 ± 2e-05
12 | A12C U47G | 0.00307 ± 0.00048 | 9.09e-05 ± 1.3e-05 | 0.00245 ± 0.00036 | 1400 ± 310 | 0.000267 ± 4.4e-05 | 0.00106 ± 0.00014 | 0.00247 ± 0.00041
13 | A12C U47C | 0.00284 ± 0.00039 | 5.87e-05 ± 6.2e-06 | 0.00226 ± 0.0002 | 1840 ± 380 | 0.000185 ± 3.6e-05 | 0.000953 ± 0.00013 | 0.00187 ± 0.00022
14 | A12C U47A | 0.011 ± 0.0034 | 0.000246 ± 4.3e-05 | 0.014 ± 0.0025 | 1620 ± 740 | 0.00131 ± 0.00027 | 0.00346 ± 0.00056 | 0.00529 ± 0.00087
